Blank lines part the entries; values can stand above or below the binder they belong to.
Experiments:
human GITR [1] = target: T1, human GITR (human, UniProt Q9Y5U5 26-241); experiment: cell-based or functional assay
T1 sequence: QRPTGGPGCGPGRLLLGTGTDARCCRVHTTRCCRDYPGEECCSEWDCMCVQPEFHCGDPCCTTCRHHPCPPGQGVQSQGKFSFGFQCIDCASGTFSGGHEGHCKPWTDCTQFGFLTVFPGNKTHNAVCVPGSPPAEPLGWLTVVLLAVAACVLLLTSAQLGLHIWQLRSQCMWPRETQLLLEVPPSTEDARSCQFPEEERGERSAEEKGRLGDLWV

cynomolgus monkey GITR [2] = target: cynomolgus monkey GITR (cynomolgus monkey); experiment: cell-based or functional assay
human GITR [3] = target: T1, human GITR; experiment: cell-based or functional assay; remark: listed apart in the source
human GITR [4] = target: T1, human GITR; experiment: cell-based or functional assay; remark: listed apart in the source
Rabbit serum albumin = target: T2, Rabbit serum albumin (rabbit, UniProt P49065 25-608); experiment: SPR, Biacore 8K, albumin immobilized on CM5, 25 C
T2 construct: Bought protein, immobilized on a CM5 chip by amine coupling at 118 RU; also called Rabbit SA
Procedure: Binding of Antibody I and Antibody II to various serum albumins is carried out on Biacore 8K instrument. The immobilization of the serum albumin to a Series S Sensor Chip CM5 (Cytiva 29149603) surface is performed according to the manufacturer's instructions (Amine Coupling Kit BR-1000-50). Briefly, carboxyl groups on the sensor chip surfaces (flow cell 1 and 2) are activated by injecting 70 μL of a mixture containing 75 mg/ml 1-Ethyl-3-(3-dimethylaminopropyl) carbodiimide hydrochloride (EDC), and 11.5 mg/ml N-Hydroxysuccinimide (NHS) at 10 μl/min. Human, cynomolgus monkey, rat, mouse, dog, pig, cow, and rabbit serum albumin are diluted in 10 mM sodium acetate pH 4.0 (BR-1003-49) at 0.8, 0.8, 0.8, 2.5, 0.8, 1, 1, and 1.5 μg/m1 then injected over the activated chip surfaces (flow cell 2, channel 1 to 8) at 10 μl/min for 100 seconds. […]
The antibodies of Examples 1 and 2 (i.e., Antibody I and II, respectively) are diluted in HBS-EP+buffer (10 mM HEPES pH 7.6, 150 mM NaCl, 3 mM EDTA, 0.05% Polysorbate 20) at concentrations of 1000, 333.3, 111.1, 37.04, 12.35, 4.12, 1.37, 0.457, 0.152, 0.051 and 0.017 nM. […] The resulting sensorgrams are analyzed using Biacore 8K Insight Evaluation Software (version 3.0.11.15423) 1:1 binding kinetics model fitting to calculate the binding kinetic parameters: association rate (ka), dissociation rate (kd), and equilibrium dissociation constant (KD).

Human serum albumin = target: T3, Human serum albumin (human, UniProt P02768 25-609); experiment: SPR, Biacore 8K, albumin immobilized on CM5, 25 C, 1:1 model
T3 construct: Bought protein, immobilized on a CM5 chip by amine coupling; also called Human SA
Procedure: (§1) Binding of Antibody I and Antibody II to various serum albumins is carried out on Biacore 8K instrument. The immobilization of the serum albumin to a Series S Sensor Chip CM5 (Cytiva 29149603) surface is performed according to the manufacturer's instructions (Amine Coupling Kit BR-1000-50). Briefly, carboxyl groups on the sensor chip surfaces (flow cell 1 and 2) are activated by injecting 70 μL of a mixture containing 75 mg/ml 1-Ethyl-3-(3-dimethylaminopropyl) carbodiimide hydrochloride (EDC), and 11.5 mg/ml N-Hydroxysuccinimide (NHS) at 10 μl/min. Human, cynomolgus monkey, rat, mouse, dog, pig, cow, and rabbit serum albumin are diluted in 10 mM sodium acetate pH 4.0 (BR-1003-49) at 0.8, 0.8, 0.8, 2.5, 0.8, 1, 1, and 1.5 μg/m1 then injected over the activated chip surfaces (flow cell 2, channel 1 to 8) at 10 μl/min for 100 seconds. Human serum albumin was obtained from Sigma Aldrich (St. Louis, Mo.) (Cat. No. A8763).
(§2) The serum albumins are covalently immobilized through free amines onto a carboxymethyl dextran-coated sensor chip CM5 at surface densities of 29-52 resonance units (RU) for human, cynomolgus monkey, rat, mouse, dog, pig, and cow as well as 118 resonance units (RU) for rabbit serum albumin. Excess reactive groups on the surfaces (flow cell 1 and 2) are deactivated by injecting 70 μl of 1 M Ethanolamine hydrochloride-NaOH pH 8.5.
(§3) The antibodies of Examples 1 and 2 (i.e., Antibody I and II, respectively) are diluted in HBS-EP+buffer (10 mM HEPES pH 7.6, 150 mM NaCl, 3 mM EDTA, 0.05% Polysorbate 20) at concentrations of 1000, 333.3, 111.1, 37.04, 12.35, 4.12, 1.37, 0.457, 0.152, 0.051 and 0.017 nM. 180 μl of sample are individually injected sequentially across the immobilized serum albumins on the chip's surface and dissociated for 600 sec at 60 μl/min flow rate at 25° C. The surface is regenerated by injecting 10 mM glycine-HCl pH 1.5 (BR-1003-54) at 60 μl/min for 100 sec. The resulting sensorgrams are analyzed using Biacore 8K Insight Evaluation Software (version 3.0.11.15423) 1:1 binding kinetics model fitting to calculate the binding kinetic parameters: association rate (ka), dissociation rate (kd), and equilibrium dissociation constant (KD).

[5] = target: T4, Cynomolgus monkey serum albumin (cynomolgus monkey, UniProt A2V9Z4 25-608); experiment: as above
T4 construct: Bought protein, immobilized on a CM5 chip by amine coupling; also called Cyno SA
Procedure: as §1, §2, §3

Mouse serum albumin = target: T5, Mouse serum albumin (mouse, UniProt P07724 25-608); experiment: as above
T5 construct: Bought protein, immobilized on a CM5 chip by amine coupling; also called Mouse SA
Procedure: as §1, §2, §3

Rat serum albumin = target: T6, Rat serum albumin (rat, UniProt P02770 25-608); experiment: as above
T6 construct: Bought protein, immobilized on a CM5 chip by amine coupling; also called Rat SA
Procedure: as §1, §2, §3

Pig serum albumin = target: T7, Pig serum albumin (pig, UniProt P08835 25-607); experiment: as above
T7 construct: Bought protein, immobilized on a CM5 chip by amine coupling; also called Pig SA
Procedure: as §1, §2, §3

Dog serum albumin = target: T8, Dog serum albumin (dog, UniProt P49822 25-608); experiment: as above
T8 construct: Bought protein, immobilized on a CM5 chip by amine coupling; also called Dog SA
Procedure: as §1, §2, §3

Cow serum albumin = target: T9, Cow serum albumin (cow, UniProt P02769 25-607); experiment: as above
T9 construct: Bought protein, immobilized on a CM5 chip by amine coupling; also called Cow SA
Procedure: as §1, §2, §3

cynomolgus monkey GITR [6] = target: T10, cynomolgus monkey GITR (cynomolgus monkey); experiment: flow cytometry on Jurkat cyno GITR/NFkBluc cells, anti-kappa PE detection, geometric mean of 3
T10 construct: whole, on cells; Stood on Jurkat cyno GITR/NFkBluc cells; also called cyno GITR
Procedure: Jurkat human GITR/NFkB-Luc2 and Jurkat cynomolgus monkey GITR/NFkBluc cells are resuspended in FACS buffer (PBS+1% BSA+0.01% sodium azide) at 1 million cells/mL and 5 μl Fc block/mL (BioLegend) is added and incubated at 4° C. for 20 min. Cells are washed with FACS buffer and resuspended at 1e6 cells/mL in FACS buffer and added to a polypropylene 96-well plate at 100 μl/well for 100,000 cells/well. 100 μl/well of 2X antibody dose titrations diluted in FACS buffer are added to cells and incubated 45 minutes at 4° C. Cells are washed twice with 200 μl/well FACS buffer and resuspended in 12.5 μg/mL anti-human Ig light chain kappa/PE secondary antibody (Invitrogen #PA1-74408) in FACS buffer and incubated for 45 minutes at 4° C. Cells are washed twice with 200 μl/well FACS buffer and resuspended in 200 μl FACS buffer. Samples are read on a Millipore EasyCyte Cytometer and median fluorescence intensity values are calculated using GuavaSoft 3.3 InCyte software. EC₅₀ values are calculated for each of 3 experiment replicates and the EC₅₀ Geometric Mean +/−Error (Delta Method) is calculated from these 3 results. The cell binding results shown in Table 5 indicate that both Antibody I and Antibody II bind potently to human GITR and cynomolgus monkey GITR (“cyno GITR”).

human GITR [7] = target: T1, human GITR; experiment: flow cytometry on Jurkat human GITR/NFkB-Luc2 cells, anti-kappa PE detection, geometric mean of 3
Procedure: Jurkat human GITR/NFkB-Luc2 cells (CS184004) were purchased from Promega and maintained in RPMI1640 media+10% FBS (HyClone SH30070.3)+400 μg/mL hygromycin B+600 μg/mL G418.
Jurkat human GITR/NFkB-Luc2 and Jurkat cynomolgus monkey GITR/NFkBluc cells are resuspended in FACS buffer (PBS+1% BSA+0.01% sodium azide) at 1 million cells/mL and 5 μl Fc block/mL (BioLegend) is added and incubated at 4° C. for 20 min. Cells are washed with FACS buffer and resuspended at 1e6 cells/mL in FACS buffer and added to a polypropylene 96-well plate at 100 μl/well for 100,000 cells/well. 100 μl/well of 2X antibody dose titrations diluted in FACS buffer are added to cells and incubated 45 minutes at 4° C. Cells are washed twice with 200 μl/well FACS buffer and resuspended in 12.5 μg/mL anti-human Ig light chain kappa/PE secondary antibody (Invitrogen #PA1-74408) in FACS buffer and incubated for 45 minutes at 4° C. Cells are washed twice with 200 μl/well FACS buffer and resuspended in 200 μl FACS buffer. Samples are read on a Millipore EasyCyte Cytometer and median fluorescence intensity values are calculated using GuavaSoft 3.3 InCyte software. EC₅₀ values are calculated for each of 3 experiment replicates and the EC₅₀ Geometric Mean +/−Error (Delta Method) is calculated from these 3 results. […]

- IC50 nM GeoMean, inhibition of GITRL stimulation of Jurkat GITR/NFkB luciferase cells (human GITR [1]): 4.1 nM
- IC50 nM GeoMean, inhibition of GITRL stimulation of Jurkat GITR/NFkB luciferase cells (cynomolgus monkey GITR [2]): 2.27 nM
- IC50 nM GeoMean, inhibition of GITRL co-stimulation of T cell proliferation (human GITR [3]): 4.76 nM
- IC50 nM Mean, restoration of regulatory T cell suppression of effector T cell proliferation in the presence of GITRL (human GITR [4]): 4.69 nM
- Kd (Human serum albumin): 0.25 nM
- koff (Human serum albumin): 6.5e-05 s⁻¹
- kon (Human serum albumin): 260000 M⁻¹ s⁻¹
- Kd [5]: 4.4 nM
- koff [5]: 0.00082 s⁻¹
- kon [5]: 190000 M⁻¹ s⁻¹
- Kd (Mouse serum albumin): 53 nM
- koff (Mouse serum albumin): 0.0094 s⁻¹
- kon (Mouse serum albumin): 180000 M⁻¹ s⁻¹
- Kd (Rat serum albumin): 44 nM
- koff (Rat serum albumin): 0.007 s⁻¹
- kon (Rat serum albumin): 160000 M⁻¹ s⁻¹
- Kd (Pig serum albumin): 100 nM
- koff (Pig serum albumin): 0.013 s⁻¹
- kon (Pig serum albumin): 120000 M⁻¹ s⁻¹
- Kd (Dog serum albumin): 20 nM
- koff (Dog serum albumin): 0.0035 s⁻¹
- kon (Dog serum albumin): 170000 M⁻¹ s⁻¹
- Kd (Cow serum albumin): 460 nM
- koff (Cow serum albumin): 0.091 s⁻¹
- kon (Cow serum albumin): 200000 M⁻¹ s⁻¹
- EC50 (cynomolgus monkey GITR [6]): 3.06 nM
- EC50 (human GITR [7]): 6.8 nM
B1: Antibody I (Fab)
heavy: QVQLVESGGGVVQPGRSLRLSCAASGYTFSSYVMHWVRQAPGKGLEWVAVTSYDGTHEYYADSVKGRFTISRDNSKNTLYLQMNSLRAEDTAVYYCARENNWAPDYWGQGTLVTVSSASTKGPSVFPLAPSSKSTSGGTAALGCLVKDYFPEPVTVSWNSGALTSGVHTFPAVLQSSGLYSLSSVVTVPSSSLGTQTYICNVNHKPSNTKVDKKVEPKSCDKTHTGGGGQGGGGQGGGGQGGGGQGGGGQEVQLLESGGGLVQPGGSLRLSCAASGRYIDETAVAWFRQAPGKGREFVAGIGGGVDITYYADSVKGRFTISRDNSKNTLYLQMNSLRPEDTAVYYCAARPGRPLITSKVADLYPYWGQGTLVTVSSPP
light: DIQMTQSPSSLSASVGDRVTITCRASQDISNSLAWYQQKPGKAPKRLIYAAFSLQSGVPSRFSGSGSGTEFTLTISSLQPEDFATYYCYQYYNYPSAFGQGTKLEIKRTVAAPSVFIFPPSDEQLKSGTASVVCLLNNFYPREAKVQWKVDNALQSGNSQESVTEQDSKDSTYSLSSTLTLSKADYEKHKVYACEVTHQGLSSPVTKSFNRGEC
notes: Monovalent anti-GITR Fab; also called HC anti-GITR Fab-VHH Fusion 1 with LC
- binding result (Rabbit serum albumin): no binding (tested: 1000 nM highest concentration tested)

- IC50 nM GeoMean, inhibition of GITRL stimulation of Jurkat GITR/NFkB luciferase cells (human GITR [1]): 1.68 nM
- IC50 nM GeoMean, inhibition of GITRL stimulation of Jurkat GITR/NFkB luciferase cells (cynomolgus monkey GITR [2]): 1.26 nM
- IC50 nM GeoMean, inhibition of GITRL co-stimulation of T cell proliferation (human GITR [3]): 1.84 nM
- IC50 nM Mean, restoration of regulatory T cell suppression of effector T cell proliferation in the presence of GITRL (human GITR [4]): 2.72 nM
- Kd (Human serum albumin): 0.4 nM
- koff (Human serum albumin): 7.8e-05 s⁻¹
- kon (Human serum albumin): 190000 M⁻¹ s⁻¹
- Kd [5]: 5.9 nM
- koff [5]: 0.00087 s⁻¹
- kon [5]: 150000 M⁻¹ s⁻¹
- Kd (Mouse serum albumin): 42 nM
- koff (Mouse serum albumin): 0.0096 s⁻¹
- kon (Mouse serum albumin): 230000 M⁻¹ s⁻¹
- Kd (Rat serum albumin): 51 nM
- koff (Rat serum albumin): 0.0073 s⁻¹
- kon (Rat serum albumin): 140000 M⁻¹ s⁻¹
- Kd (Pig serum albumin): 99 nM
- koff (Pig serum albumin): 0.012 s⁻¹
- kon (Pig serum albumin): 120000 M⁻¹ s⁻¹
- Kd (Dog serum albumin): 20 nM
- koff (Dog serum albumin): 0.0034 s⁻¹
- kon (Dog serum albumin): 170000 M⁻¹ s⁻¹
- Kd (Cow serum albumin): 430 nM
- koff (Cow serum albumin): 0.087 s⁻¹
- kon (Cow serum albumin): 200000 M⁻¹ s⁻¹
- EC50 (cynomolgus monkey GITR [6]): 2.34 nM
- EC50 (human GITR [7]): 3.25 nM
B2: Antibody II (Fab)
heavy: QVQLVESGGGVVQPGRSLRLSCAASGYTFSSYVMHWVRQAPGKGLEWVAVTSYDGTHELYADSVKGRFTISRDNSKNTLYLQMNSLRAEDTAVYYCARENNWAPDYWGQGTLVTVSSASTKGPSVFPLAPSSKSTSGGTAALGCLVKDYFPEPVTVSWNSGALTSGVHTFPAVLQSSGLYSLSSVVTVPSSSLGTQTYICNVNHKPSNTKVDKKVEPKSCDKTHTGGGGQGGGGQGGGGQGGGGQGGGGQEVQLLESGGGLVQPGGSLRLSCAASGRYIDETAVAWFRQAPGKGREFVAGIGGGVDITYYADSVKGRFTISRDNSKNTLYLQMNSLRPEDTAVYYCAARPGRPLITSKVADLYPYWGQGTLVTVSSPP
light: B1 light
notes: Monovalent anti-GITR Fab; also called HC anti-GITR Fab-VHH Fusion 2 with LC
- binding result (Rabbit serum albumin): no binding (tested: 1000 nM highest concentration tested)

— US20220251227A1 (Eli Lilly, published 2022)
